Source: US20100081620A1 (BIOZYME, published 2010)
Read-outs that look alike come from different tables or passages of the source.

T1: human ADAM 9 catalytic/disintegrin domains (human, UniProt Q13443 206-697, limits assumed)
T1 construct: domain: catalytic/disintegrin domains; Bought; also called ADAM 9 (human)
T1 sequence (looked up): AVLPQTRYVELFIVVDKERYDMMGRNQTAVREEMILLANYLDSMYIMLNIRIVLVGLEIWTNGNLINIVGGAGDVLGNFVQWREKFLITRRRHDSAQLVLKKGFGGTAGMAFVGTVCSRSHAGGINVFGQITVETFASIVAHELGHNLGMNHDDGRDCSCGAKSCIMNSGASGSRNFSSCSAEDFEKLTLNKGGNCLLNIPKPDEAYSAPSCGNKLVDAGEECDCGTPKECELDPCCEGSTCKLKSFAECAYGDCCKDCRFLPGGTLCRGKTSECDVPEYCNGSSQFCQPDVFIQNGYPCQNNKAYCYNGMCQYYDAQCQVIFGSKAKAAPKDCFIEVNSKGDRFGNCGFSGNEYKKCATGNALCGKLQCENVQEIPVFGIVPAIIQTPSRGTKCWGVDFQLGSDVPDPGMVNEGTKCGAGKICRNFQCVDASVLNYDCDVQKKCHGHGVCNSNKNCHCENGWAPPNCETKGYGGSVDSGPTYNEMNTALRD

T2: Human ADAM10 protease containing the catalytic/disintegrin domains (human, UniProt O14672 214-672, limits assumed)
T2 construct: domain: catalytic/disintegrin domains; Bought; also called ADAM 10 (human) Cat/Dis; ADAM10 catalytic/disintegrin construct
T2 sequence (looked up): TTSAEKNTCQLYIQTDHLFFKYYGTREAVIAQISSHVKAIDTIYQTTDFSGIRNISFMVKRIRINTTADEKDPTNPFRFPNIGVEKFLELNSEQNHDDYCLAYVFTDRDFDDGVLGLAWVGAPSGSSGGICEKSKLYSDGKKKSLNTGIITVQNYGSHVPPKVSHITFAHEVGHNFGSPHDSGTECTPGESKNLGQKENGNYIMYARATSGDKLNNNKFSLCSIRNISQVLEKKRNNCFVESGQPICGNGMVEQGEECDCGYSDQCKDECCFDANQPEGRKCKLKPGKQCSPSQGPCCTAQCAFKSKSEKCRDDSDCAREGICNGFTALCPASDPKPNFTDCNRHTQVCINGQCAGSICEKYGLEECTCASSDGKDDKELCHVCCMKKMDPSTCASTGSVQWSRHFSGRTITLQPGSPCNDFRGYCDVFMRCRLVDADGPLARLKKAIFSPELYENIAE

T3: ADAM 8 catalytic domain (mouse) (mouse, UniProt Q05910 196-395, limits assumed)
T3 construct: domain: catalytic domain; also called ADAM 8 (mouse); ADAM 8 (mouse) Cat
T3 sequence (looked up): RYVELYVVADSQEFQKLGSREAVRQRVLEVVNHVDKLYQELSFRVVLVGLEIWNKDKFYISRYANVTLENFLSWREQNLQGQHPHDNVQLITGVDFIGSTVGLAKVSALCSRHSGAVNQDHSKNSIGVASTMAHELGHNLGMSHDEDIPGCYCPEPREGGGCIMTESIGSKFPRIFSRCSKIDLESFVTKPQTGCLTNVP

B1: wt ProADAM 10 23-213 (C-terminal His tag) (other)
chain: NPLNKYIRHYEGLSYNVDSLHQKHQRAKRAVSHEDQFLLLDFHAHGRQFNLRMKRDTSLFSDEFKVETSNKVPDYDTSHIYTGHIYGEEGSFSHGSVIDGRFEGFIKTRGGTFYIEPAERYIKDRILPFHSVIYHEDDINYPHKYGPQGGCADHSVFERMRKYQMTGVEEGARAHPEKHAASSGPELLRKKHHHHHH
notes: the wild type has Cys there
B2: wt ProADAM 10 23-213 (N-terminal His tag) (other)
chain: NPLNKYIRHYEGLSYNVDSLHQKHQRAKRAVSHEDQFLLLDFHAHGRQFNLRMKRDTSLFSDEFKVETSNKVPDYDTSHIYTGHIYGEEGSFSHGSVIDGRFEGFIKTRGGTFYIEPAERYIKDRILPFHSVIYHEDDINYPHKYGPQGGCADHSVFERMRKYQMTGVEEGARAHPEKHAASSGPELLRKK
notes: Expressed in E. coli, purified on Ni-NTA and Superdex-75; the wild type has Cys there; not shown: N-terminal His tag and leader encoded by the pRSET vector (insert at BamHI/EcoRI)

Key:
[1] = molecular target: T1, human ADAM 9 catalytic/disintegrin …; experiment: enzyme inhibition, fluorescent peptide substrate
Procedure: (§1) Inhibition assays with ADAM 9. The fluorescent substrate, Dabcyl-PchaGC(Me)HAK(Fam)-NH₂ (SEQ ID NO 19) (10 μM), in a buffer containing 25 mM Tris, pH 8.0, 0.0006% Brij-35, was used to measure human ADAM 9 catalytic/disintegrin domains activity. The ADAM 9 was provided as a 0.1 μg/μl stock solution, from which 3 μl was added to start the reaction in the absence or presence of ADAM10 prodomain (78-5000 nM). Fluorescence intensities were measured every 10-20 minutes at excitation and emission wavelengths of 485 and 530 nm respectively.
Calculation of inhibition constants. The amount of activity was calculated by subtracting the ADAM 10 prodomain control from the ADAM 10 prodomain with enzyme. All inhibition assays were performed at room temperature and the data fit to the following equation using Sigma Plot software: […]

[2] = molecular target: T4, Human TACE protease containing the catalytic/disintegrin domains (human, UniProt P78536 215-671, limits assumed); experiment: enzyme inhibition, fluorescent peptide substrate
T4 construct: domain: catalytic/disintegrin domains; Bought; also called TACE (human) Cat/Dis; TACE catalytic/disintegrin
Procedure: (§2) Inhibition assays with TACE and ADAM 10. Activity of TACE catalytic/disintegrin, TACE catalytic, or ADAM10 catalytic/disintegrin constructs was monitored at 3 minute intervals using the fluorescent substrate, Dabcyl-LAQAHomoPheRSC(Fluorescein)-NH₂ (SEQ ID NO 17) with excitation 485 nm and emission 530 nm. The substrate was diluted from a 10 mM stock in DMSO to 10 μM in assay buffer containing 20 mM Tris, pH 8.0, and 0.0006% Brij-35. Reactions were run in a 96-well black-coated plate with either ADAM10 prodomain (10 nM-1.0 μM) alone or with enzyme. Concentrations of enzyme ranged from 0.5-2.0 nM for TACE and 5-15 nM for ADAM10. For assays with TACE and ADAM8 prodomain, the range of concentrations varied from 1-4.7 μM.
(§3) Inhibition assays with MMPs. The fluorescent substrate Dabcyl-[…](Fluorescein)-NH₂ (SEQ ID NO 18) (10 μM) in assay buffer containing 50 mM Tris, pH 7.5, 150 mM NaCl, 2 mM CaCl₂, 5 μM ZnSO₄, and 0.01% Brij-35 was used to monitor enzyme activities. MMPs 1, 2, 3, 9, 13, and 14 (0.1-20 nM) were incubated with substrate in the absence or presence of prodomain (3-30 μM). Fluorescence intensities were measured every 3-5 minutes at an emission wavelength of 530 nm (excitation 485 nm).
as §1

[3] = molecular target: T1, human ADAM 9 catalytic/disintegrin …; experiment: enzyme inhibition, fluorescent peptide substrate; remark: listed apart in the source
Procedure: as §2, §3, §1

[4] = molecular target: T5, TACE catalytic domain (human) (human, UniProt P78536 215-477, limits assumed); experiment: enzyme inhibition, fluorescent peptide substrate
T5 construct: domain: catalytic domain; also called TACE (human) Cat
Procedure: as §2, §3, §1

[5] = molecular target: T2, Human ADAM10 protease containing the …; experiment: enzyme inhibition, fluorescent peptide substrate; fit to a pure competitive model
Procedure: ADAM 10 protein was diluted 1:100 in buffer 25 mM Tris pH 8, 0.0006% Brij-35 and then 10 μl was added to 88 μl of substrate (20-100 μM), Dabcyl-LAQAHomoPheRSC(Fluorescein)-NH₂ with excitation 485 nm and emission 530 nm. Prodomain, 2 μl, in 25 mM Tris, pH 8, 100 mM NaCl, 10% glycerol, 0.1% mercaptoethanol, and 50 μM CaCl₂ was added to substrate before addition of enzyme. The final concentration of prodomain ranged from 17-170 nM. The fluorescence vs time was plotted, and slopes were taken from straight line fits of initial velocities. The reciprocal of the velocities was plotted vs the reciprocal of substrate squared since the normal Lineweaver Burke plot gave curved lines. The initial velocities vs substrate concentrations were fit as a family of curves to several allosteric models. The data fit best to a pure competitive model as described in the following equation where binding of inhibitor prevents substrate from binding to both sites: […]

[6] = molecular target: T3, ADAM 8 catalytic domain (mouse); experiment: enzyme inhibition, fluorescamine assay with Dnp peptide substrate
Procedure: Inhibition assays with ADAM 8. The ADAM 8 catalytic domain was expressed and purified from E. coli as described (22). A substrate based on the L-selectin cleavage site, Dnp-INorIeu[…]-NH₂ (SEQ ID NO 20), was used to monitor enzyme activity with a fluorescamine assay. From a concentrated 50 mM solution in DMSO, the substrate was diluted 1:500 in 25 mM HEPES, pH 8.0, 0.0006% Brij-35. To 100 μl of diluted substrate was added either 5 μl of buffer (Tris, pH 8.0, 150 mM KCl) or 5 μl of ADAM10 prodomain (1-10 μM). Zero time points were taken by diluting 12.5 μl of the reaction mixture into 100 μl of fluorescamine buffer (50 mM HEPES, pH 8.0, 0.2 M NaCl, 0.01 M CaCl₂, 0.01% Brij-35) in a 96-well black-coated plate. Before measuring fluorescence, 3 μl of a 1% solution of fluorescamine in DMSO was added to each well. The plate was allowed to incubate for 10 min in the dark before measuring fluorescence (excitation wavelength at 390 nm, emission wavelength at 485 nm). For assays with TACE and ADAM8 prodomains, a fluorescent substrate was used to monitor activity at concentrations of prodomains ranging from 1-4.7 μM.
Calculation of inhibition constants. The amount of activity was calculated by subtracting the ADAM 10 prodomain control from the ADAM 10 prodomain with enzyme. […]

[7] = molecular target: T6, MMP 13; experiment: enzyme inhibition, fluorescent peptide substrate
T6 construct: also called matrix metalloproteinase 13
Procedure: as §2, §3, §1

[8] = molecular target: T7, MMP 1; experiment: enzyme inhibition, fluorescent peptide substrate
T7 construct: also called matrix metalloproteinase 1
Procedure: as §2, §3, §1

[9] = molecular target: T8, MMP 14; experiment: enzyme inhibition, fluorescent peptide substrate
T8 construct: also called matrix metalloproteinase 14
Procedure: as §2, §3, §1

[10] = molecular target: T9, MMP 2; experiment: enzyme inhibition, fluorescent peptide substrate
T9 construct: also called matrix metalloproteinase 2
Procedure: as §2, §3, §1

[11] = molecular target: T10, MMP 9; experiment: enzyme inhibition, fluorescent peptide substrate
T10 construct: also called matrix metalloproteinase 9
Procedure: as §2, §3, §1

[12] = molecular target: T11, MMP 3; experiment: enzyme inhibition, fluorescent peptide substrate
T11 construct: also called matrix metalloproteinase 3
Procedure: as §2, §3, §1

[13] = molecular target: T2, Human ADAM10 protease containing the …; experiment: enzyme inhibition, fluorescent peptide substrate
Procedure: as §2, §3, §1

T4 sequence (P78536 215-671 limits assumed): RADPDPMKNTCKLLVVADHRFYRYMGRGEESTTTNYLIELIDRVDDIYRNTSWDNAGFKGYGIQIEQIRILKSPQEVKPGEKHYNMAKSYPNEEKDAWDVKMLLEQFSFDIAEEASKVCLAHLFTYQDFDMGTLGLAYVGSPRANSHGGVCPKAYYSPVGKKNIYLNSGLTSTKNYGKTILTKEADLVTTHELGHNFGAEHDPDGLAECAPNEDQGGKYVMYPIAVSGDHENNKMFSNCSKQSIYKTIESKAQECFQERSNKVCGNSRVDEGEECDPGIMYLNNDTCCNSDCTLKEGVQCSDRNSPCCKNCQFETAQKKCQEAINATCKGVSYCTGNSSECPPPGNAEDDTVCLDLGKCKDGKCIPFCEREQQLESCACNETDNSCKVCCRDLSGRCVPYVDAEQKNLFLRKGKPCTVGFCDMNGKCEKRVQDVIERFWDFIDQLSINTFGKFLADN
T5 sequence (P78536 215-477 limits assumed): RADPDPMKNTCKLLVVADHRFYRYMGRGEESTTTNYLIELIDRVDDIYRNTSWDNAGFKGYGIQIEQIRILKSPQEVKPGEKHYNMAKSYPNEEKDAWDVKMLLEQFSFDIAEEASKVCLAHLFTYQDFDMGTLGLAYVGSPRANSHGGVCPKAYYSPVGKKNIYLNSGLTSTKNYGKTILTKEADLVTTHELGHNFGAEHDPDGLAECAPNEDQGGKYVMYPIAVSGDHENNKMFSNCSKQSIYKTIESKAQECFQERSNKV
T11 sequence (P08254 100-477): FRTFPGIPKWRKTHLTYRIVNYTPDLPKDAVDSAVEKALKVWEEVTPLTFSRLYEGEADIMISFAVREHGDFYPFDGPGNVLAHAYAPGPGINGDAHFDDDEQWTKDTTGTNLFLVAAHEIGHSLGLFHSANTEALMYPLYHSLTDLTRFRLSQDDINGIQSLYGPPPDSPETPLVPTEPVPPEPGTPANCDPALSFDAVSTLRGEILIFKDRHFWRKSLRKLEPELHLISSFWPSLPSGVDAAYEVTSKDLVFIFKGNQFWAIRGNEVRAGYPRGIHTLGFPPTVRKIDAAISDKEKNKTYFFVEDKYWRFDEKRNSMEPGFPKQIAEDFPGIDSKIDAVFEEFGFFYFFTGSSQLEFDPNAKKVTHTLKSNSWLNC
T9 sequence (P08253 110-660): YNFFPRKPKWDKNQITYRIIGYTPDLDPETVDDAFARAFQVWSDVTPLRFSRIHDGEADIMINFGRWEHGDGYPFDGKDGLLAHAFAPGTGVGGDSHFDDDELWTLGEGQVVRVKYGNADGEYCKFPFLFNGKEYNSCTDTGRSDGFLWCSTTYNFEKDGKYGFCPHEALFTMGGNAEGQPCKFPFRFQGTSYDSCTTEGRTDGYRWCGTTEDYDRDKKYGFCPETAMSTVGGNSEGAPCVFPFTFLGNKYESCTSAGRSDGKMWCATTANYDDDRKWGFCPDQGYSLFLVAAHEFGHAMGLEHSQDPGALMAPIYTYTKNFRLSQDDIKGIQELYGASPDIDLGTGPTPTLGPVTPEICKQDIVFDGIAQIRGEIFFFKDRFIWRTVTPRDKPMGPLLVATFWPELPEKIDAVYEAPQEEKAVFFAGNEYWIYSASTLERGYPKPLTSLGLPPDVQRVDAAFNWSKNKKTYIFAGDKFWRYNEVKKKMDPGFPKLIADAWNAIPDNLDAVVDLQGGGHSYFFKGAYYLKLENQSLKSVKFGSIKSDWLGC
T7 sequence (P03956 100-469): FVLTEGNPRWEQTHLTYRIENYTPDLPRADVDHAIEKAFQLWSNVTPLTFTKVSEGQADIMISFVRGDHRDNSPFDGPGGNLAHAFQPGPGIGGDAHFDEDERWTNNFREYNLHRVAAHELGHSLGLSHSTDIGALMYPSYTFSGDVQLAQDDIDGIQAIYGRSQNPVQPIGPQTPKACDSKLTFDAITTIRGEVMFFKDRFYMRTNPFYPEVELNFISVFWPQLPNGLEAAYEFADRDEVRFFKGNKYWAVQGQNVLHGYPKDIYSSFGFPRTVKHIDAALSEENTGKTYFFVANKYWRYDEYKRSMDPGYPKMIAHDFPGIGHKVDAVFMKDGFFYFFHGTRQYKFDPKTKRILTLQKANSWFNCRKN
T10 sequence (P14780 107-707): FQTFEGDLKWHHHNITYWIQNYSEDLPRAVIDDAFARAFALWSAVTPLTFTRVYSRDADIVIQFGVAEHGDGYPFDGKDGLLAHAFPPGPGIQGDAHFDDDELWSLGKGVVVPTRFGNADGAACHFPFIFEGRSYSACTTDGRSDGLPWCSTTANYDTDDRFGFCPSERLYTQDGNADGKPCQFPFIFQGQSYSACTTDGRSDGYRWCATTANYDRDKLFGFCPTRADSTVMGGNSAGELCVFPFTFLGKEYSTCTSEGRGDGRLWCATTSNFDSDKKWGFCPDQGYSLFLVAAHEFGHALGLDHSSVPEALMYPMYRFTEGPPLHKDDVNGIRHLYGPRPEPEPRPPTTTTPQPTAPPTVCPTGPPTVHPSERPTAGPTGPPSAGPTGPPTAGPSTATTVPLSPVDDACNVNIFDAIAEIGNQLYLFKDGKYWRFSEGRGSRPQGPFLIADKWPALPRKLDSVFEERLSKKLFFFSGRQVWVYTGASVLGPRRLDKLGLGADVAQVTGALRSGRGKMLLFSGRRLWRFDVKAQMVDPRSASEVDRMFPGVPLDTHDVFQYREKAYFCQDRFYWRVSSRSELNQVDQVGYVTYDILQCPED

Binder	Ki [1] [µM]	Ki [2] [µM]	Ki [3] [µM]	Ki [4] [µM]	Ki [5] [µM]	Ki [6] [µM]	Ki [7] [µM]	Ki [8] [µM]	Ki [9] [µM]	Ki [10] [µM]	Ki [11] [µM]	Ki [12] [µM]	Ki [13] [µM]
B1	~1	> 10	> 1	> 11	0.048	> 10							
B2		> 3		> 11			> 2	> 2	> 2	> 2	> 2	> 2	0.075
